Measurements from paper PMC9076686, “Calcium bursts allow rapid reorganization of EFhD2/Swip-1 cross-linked actin networks in epithelial wound closure” (Nature Communications, 2022).

Experiments:
[1] = molecular target: T1, Actin from rabbit skeletal muscle (F-actin) (rabbit, UniProt P68135 1-377); assay: co-sedimentation; high-speed pelleting at 200,000 x g, 4 °C, 1 h; 8 µM G-actin polymerised with increasing Swip-1 in 1x KMI (10 mM imidazole pH 7.0, 50 mM KCl, 1 mM MgCl2) with 1 mM CaCl2 for 2 h at 4 °C; presence of calcium; fit to independent, identical binding sites; details: both partners purified
[2] = molecular target: T1, Actin from rabbit skeletal muscle …; assay: co-sedimentation; high-speed pelleting at 200,000 x g, 4 °C, 1 h; 8 µM G-actin polymerised with increasing Swip-1 in 1x KMEI (10 mM imidazole pH 7.0, 50 mM KCl, 1 mM MgCl2, 1 mM EGTA) for 2 h at 4 °C; absence of calcium; fit to independent, identical binding sites; details: both partners purified

Kd [1]: 900 ± 100 nM
stoichiometry N [1]: ~0.5 Swip-1:actin
Kd [2]: 4300 ± 1300 nM
stoichiometry N [2]: ~1 Swip-1:actin
B1: Drosophila Swip-1 (EFhD2/Swip-1), recombinant wild type (natural protein)
chain: MSVSSNASSASNKDSVDSPSSTTNTDSSELTHILNRRQEIMESQEAGIEVRRTYKVVNVYTDFPEFSRNQIKDYQKTFNTYDTARDGFLDLQELKFMMEKLGAPQTHLGLKQMIAEVDEDNDGKISFREFLLIFRKAQAGELDSDSGLNQLARLTEVDVEQVGVSGAKNFFEAKIEQQLRTNKFHDEIRAEQEERRREEEERAQRRQQFQQRAAIFQ
notes: residues left after PreScission cleavage are not described; source: E. coli Rossetta 2, purified (glutathione agarose, GST cleaved by PreScission protease, size-exclusion chromatography)
